Measurements: article PMC3128532

Target: MBP-tagged TANGO1-Coil2 (amino acids 1440-1650) (human) (UniProt Q5JRA6)
Assay: pull-down

UniProt Q5JRA6, sequence (Q5JRA6 1440-1650): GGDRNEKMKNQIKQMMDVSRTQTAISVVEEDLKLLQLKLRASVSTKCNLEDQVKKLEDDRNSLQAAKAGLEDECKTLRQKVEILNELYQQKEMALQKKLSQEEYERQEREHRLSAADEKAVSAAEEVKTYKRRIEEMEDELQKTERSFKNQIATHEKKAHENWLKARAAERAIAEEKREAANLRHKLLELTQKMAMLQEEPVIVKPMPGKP

- stoichiometry N: 1
Substance: ColdTF-tagged cTAGE5-Coil2 (amino acids 301-650) (domain or fragment)
